According to article doi:10.1101/2022.03.31.486616:

Biological target: E. cloacae Cap2 (C109A/C548A), catalytically dead (E. cloacae)
Assay: cryo-EM structure

Substance: E. cloacae Cap2 (C109A/C548A), catalytically dead (enzyme)
- stoichiometry N: 2
